The Kd is the concentration at which binding is half-saturated. Lower therefore signals higher affinity. For orientation: koff means the first-order rate constant of dissociation. The low end stands for slow dissociation, the high end for fast dissociation. In general, kon refers to a measure of how fast the partners come together.

This is an account of results in publication PMC9890520.

Experiment [1] addresses human EGFR.Fc (extracellular domain of EGFR) (human) (UniProt P00533). The experiment in a line: SPR. A general note: SPR reads the build-up and loss of mass on a sensor chip optically.
Experiment [2] has as its target human HER2.Fc (extracellular domain of HER2) (human) (UniProt P04626). The experiment in a line: SPR.

In experiment [1], Z_(EGFR:1907) (designed binder) yielded a dissociation constant Kd of 7.06 nM, a koff of 0.000666 s⁻¹ and a kon of 94300 M⁻¹ s⁻¹.

Turning to Z_(HER2:342) (designed binder), in experiment [2], the Kd came out at 0.076 nM, the koff came out at 0.000111 s⁻¹ and the kon is 1.45e+06 M⁻¹ s⁻¹.

In experiment [2], Z_(HER2:342).BirA* (designed binder) had a Kd of 0.0109 nM, a dissociation rate constant (koff) of 1.14e-07 s⁻¹ and a kon of 10400 M⁻¹ s⁻¹.
